US20140271653A1 (Regeneron, published 2014)
Where two headings read alike, the source gives them in different places.

Experiments:
[1] = molecular target: T1, RSV-F of RSV subtype A strain A2 (1540) (respiratory syncytial virus subtype A, …, UniProt P03420 26-574); assay: cell-based or functional assay
[2] = molecular target: T2, RSV-F of RSV subtype B strain 9320 (respiratory syncytial virus subtype B, …); assay: cell-based or functional assay
[3] = molecular target: RSV-F of RSV subtype B strain 1A2 (respiratory syncytial virus subtype B, …); assay: cell-based or functional assay
[4] = molecular target: RSV-F of RSV subtype B strain 1400 (respiratory syncytial virus subtype B, …); assay: cell-based or functional assay
[5] = molecular target: T3, RSV-F of RSV subtype A strain Long (respiratory syncytial virus subtype A, …, UniProt P12568 26-574); assay: cell-based or functional assay
[6] = molecular target: RSV-F of RSV subtype B strain 18537 (respiratory syncytial virus subtype B, …, UniProt P13843 26-574); assay: cell-based or functional assay
[7] = molecular target: T1, RSV-F of RSV subtype A strain A2 (1540); assay: cell-based or functional assay; remark: listed apart in the source
[8] = molecular target: T4, RSV-F of RSV subtype B strain 1580 (respiratory syncytial virus subtype B, …); assay: cell-based or functional assay
[9] = molecular target: T1, RSV-F of RSV subtype A strain A2 (1540); assay: cell-based or functional assay; remark: listed apart in the source
[10] = molecular target: T1, RSV-F of RSV subtype A strain A2 (1540); assay: cell-based or functional assay; remark: listed apart in the source
[11] = molecular target: T1, RSV-F of RSV subtype A strain A2 (1540); assay: cell-based or functional assay; remark: listed apart in the source
[12] = molecular target: T3, RSV-F of RSV subtype A strain Long; assay: cell-based or functional assay; remark: listed apart in the source
[13] = molecular target: RSV-F of RSV subtype A clinical isolate A1998/12-21 (respiratory syncytial virus subtype A, …); assay: cell-based or functional assay
[14] = molecular target: RSV-F of RSV subtype A clinical isolate A2000/3-4 (respiratory syncytial virus subtype A, …); assay: cell-based or functional assay
[15] = molecular target: RSV-F of RSV subtype A clinical isolate A1998/3-2 (respiratory syncytial virus subtype A, …); assay: cell-based or functional assay
[16] = molecular target: RSV-F of RSV subtype A clinical isolate A2001/2-20 (respiratory syncytial virus subtype A, …); assay: cell-based or functional assay
[17] = molecular target: RSV-F of RSV subtype A clinical isolate A2001/3-12 (respiratory syncytial virus subtype A, …); assay: cell-based or functional assay
[18] = molecular target: RSV-F of RSV subtype A clinical isolate A1997/12-35 (respiratory syncytial virus subtype A, …); assay: cell-based or functional assay
[19] = molecular target: T2, RSV-F of RSV subtype B strain 9320; assay: cell-based or functional assay; remark: listed apart in the source
[20] = molecular target: T4, RSV-F of RSV subtype B strain 1580; assay: cell-based or functional assay; remark: listed apart in the source
[21] = molecular target: T5, RSV-F.mmh (Respiratory Syncytial Virus); assay: SPR (Biacore), mAb captured via Fc, soluble RSV-F.mmh injected, 25 C
T5 construct: also called recombinant RSV-F; soluble monomeric RSV-F

[22] = molecular target: T5, RSV-F.mmh; assay: as above; remark: listed apart in the source
Protocol: Measurements were conducted on a Biacore 4000 or T-200 instrument. […] All Biacore binding studies were performed in HBST running buffer (0.01 M HEPES pH 7.4, 0.15 M NaCl, 3 mM EDTA, 0.005% v/v surfactant P20). Different concentrations of RSV-F.mmh prepared in HBST running buffer were injected over the anti-RSV-F monoclonal antibody captured surface at a flow rate of 30 μl/min (Biacore 4000) or at a flow rate of 50 μl/min (Biacore T-200) and the association of RSV-F.mmh to captured monoclonal antibody was monitored for 6 min or 3 min respectively. The dissociation of RSV-F.mmh from the monoclonal antibody in HBST running buffer was monitored for 8-10 min at 25° C. Kinetic association (kₐ) and dissociation (kd) rate constants were determined by processing and fitting the data to a 1:1 binding model using Scrubber 2.0 curve fitting software. Binding dissociation equilibrium constants (KD) and dissociative half-lives (t½) were calculated from the kinetic rate constants as: KD (M)=kd/kₐ; and t_{1/2} (min)=(ln 2/(60*kd).

| Binder | IC50 [pM] for RSV A2 Neutralization, Trial 7 [10] [pM] | RSV-A2 (1540) Neutral. IC50 [pM] [11] [pM] | RSV-A2 (1540) neutralization, Fold Improvement Relative to Control 1 [11] [fold] | RSV-Long Neutral. IC50 [pM] [12] [pM] | RSV-Long neutralization, Fold Improvement Relative to Control 1 [12] [fold] | RSV-9320 Neutral. IC50 [pM] [19] [pM] | RSV-9320 neutralization, Fold Improvement Relative to Control 1 [19] [fold] | RSV - 1580 Neutral. IC50 [pM] [20] [pM] | RSV - 1580 neutralization, Fold Improvement Relative to Control 1 [20] [fold] | Kd [21] [nM] | koff [21] [s⁻¹] | kon [21] [M⁻¹ s⁻¹] | t½ [21] [min] | other results |
| --- | --- | --- | --- | --- | --- | --- | --- | --- | --- | --- | --- | --- | --- | --- |
| H1H3592P3 (antibody, V domains shown) VH: EVQLVESGGDLVQPGRSLRLSCVASGFTFDDYAMHWVRQAPGKGLEWVSGVSWSGSTVGYADSVKGRFTVSRDNAQKSLYLQMNSLRAEDTALYYCVKDAYKFNYYYYGLDVWGQGTTVTVSS VL: EIVMTQSPATLSVSPGERATLSCRASQTILSNLAWYLQKPGQAPRLLIYGASTRATGLPARFSGSGSGTEFTLTISSLQSEDFAVYYCQQYNNWPLTFGGGTKVEIK | 10 | 10 | 36 | 15 | 35 | 100 | 4.6 | 31 | 12 | 8.43 | 0.000747 | 88600 | 15 | IC50 (pM), RSV micro-neutralization, A/A2 [1]: 140 pM; IC50 (pM), RSV micro-neutralization, B/9320 [2]: 151 pM; IC50 (pM), RSV micro-neutralization, B/1A2 [3]: 48 pM; IC50 (pM), RSV micro-neutralization, B/1400 [4]: 33 pM; IC50 (pM), RSV micro-neutralization, A/Long [5]: 44 pM; IC50 (pM), RSV micro-neutralization, B/18537 [6]: 230 pM; Neutralization IC50, pM (microneutralization, wt subtype A) [7]: 177 pM; Neutralization IC50, pM (microneutralization, wt subtype B) [8]: 290 pM; IC50 of blocking viral fusion (antibody added after viral attachment at 4 C, infection read by ELISA) [9]: 0.23 nM; IC50 (pM), RSV micro-neutralization, clinical isolate [13]: 34 pM; IC50 (pM), RSV micro-neutralization, clinical isolate [14]: 50 pM; IC50 (pM), RSV micro-neutralization, clinical isolate [15]: 35 pM; IC50 (pM), RSV micro-neutralization, clinical isolate [16]: 43 pM; IC50 (pM), RSV micro-neutralization, clinical isolate [17]: 66 pM; IC50 (pM), RSV micro-neutralization, clinical isolate [18]: 40 pM |
| H1M3627N (antibody, V domains shown) VH: EVQLVESGGGLVQPGGSLRLSCAASGFTISNYEMNWVRQAPGKGLEWVSYISTSGITIYYADSVQGRFTISRDNAKNSLYLQLNSLRAEDTAVYYCARGYCTNGVCYPHYYYSDMDVWGQGTTVTVSS VL: DIQMTQSPSSLSASVGDRLTITCRASQTISTYLNWFQQKVGNAPKLLIYSTSSLQSGVPARFSGSGSGTDFTLTISSLQPEDFATYYCQQSYSSPPTFGQGTKVEIK | – | – | – | – | – | – | – | – | – | – | – | – | – | IC50 [pM] for RSV A2 Neutralization, Trial 1 [10]: 4 pM; IC50 [pM] for RSV A2 Neutralization, Trial 2 [10]: 4 pM; IC50 [pM] for RSV A2 Neutralization, Trial 3 [10]: 5 pM; IC50 [pM] for RSV A2 Neutralization, Trial 6 [10]: 10 pM; Kd [22]: 2.02 nM; koff [22]: 0.000523 s⁻¹; kon [22]: 259000 M⁻¹ s⁻¹; t½ [22]: 22 min |
| H1H3627N (antibody, V domains shown) VH: EVQLVESGGGLVQPGGSLRLSCAASGFTISNYEMNWVRQAPGKGLEWVSYISTSGITIYYADSVQGRFTISRDNAKNSLYLQLNSLRAEDTAVYYCARGYCTNGVCYPHYYYSDMDVWGQGTTVTVSS VL: DIQMTQSPSSLSASVGDRLTITCRASQTISTYLNWFQQKVGNAPKLLIYSTSSLQSGVPARFSGSGSGTDFTLTISSLQPEDFATYYCQQSYSSPPTFGQGTKVEIK | 3 | 2.6 | 138 | 7.3 | 73 | 11 | 42 | 6.7 | 55 | 0.581 | 0.000149 | 256000 | 78 | – |
